For test [1], the target named is T1, pTT5hIgG1-S4 fusion protein (hepatitis B virus (HBV subtype B)).
T1 construct: also called S4 (Cter); Cter
The test can be described thus: ELISA, fusion protein coated at 1 µg/mL, antibody at 1 µg/ml. (In an ELISA, binding on a coated surface is turned into a signal by an enzyme label.)

The target of test [2] is T2, pTT5hIgG1-S5 fusion protein (hepatitis B virus (HBV subtype B)).
T2 construct: also called S5 (Loop2-Cter); Loop2-Cter
The description is as above.

B1: 125smIgG2 (Fc fusion)
chain: QLQLVESGGGLVQAGGSLRLSCAASGGTISAYAMGWFRQAPGKDREFVAGISWTTSSAYYTDSVKGRFTISRDFAKNTVYLQMNSLKPEDTAVYYCNDRVSDTVGFGSWGQGTQVTVSSPRVPITQNPCPPLKECPPCAAPDLLGGPSVFIFPPKIKDVLMISLSPMVTCVVVDVSEDDPDVQISWFVNNVEVHTAQTQTHREDYNSTLRVVSALPIQHQDWMSGKEFKCKVNNRALPSPIEKTISKPRGPVRAPQVYVLPPPAEEMTKKEFSLTCMITGFLPAEIAVDWTSNGRTEQNYKNTATVLDSDGSYFMYSKLRVQKSTWERGSLFACSVVHEGLHNHLTTKTISRSLGK
B1: the binding result in test [1] and in test [2] was “binds” in each case.

The values are drawn from patent publication US20250101083A1 (XIAMEN UNIVERSITY, published 2025).
